Sequences and labels used below:
B1: human FKBP52 (natural protein)
chain: MTAEEMKATESGAQSAPLPMEGVDISPKQDEGVLKVIKREGTGTEMPMIGDRVFVHYTGWLLDGTKFDSSLDRKDKFSFDLGKGEVIKAWDIAIATMKVGEVCHITCKPEYAYGSAGSPPKIPPNATLVFEVELFEFKGEDLTEEEDGGIIRRIQTRGEGYAKPNEGAIVEVALEGYYKDKLFDQRELRFEIGEGENLDLPYGLERAIQRMEKGEHSIVYLKPSYAFGSVGKEKFQIPPNAELKYELHLKSFEKAKESWEMNSEEKLEQSTIVKERGTVYFKEGKYKQALLQYKKIVSWLEYESSFSNEEAQKAQALRLASHLNLAMCHLKLQAFSAAIESCNKALELDSNNEKGLFRRGEAHLAVNDFELARADFQKVLQLYPNNKAAKTQLAVCQQRIRRQLAREKKLYANMFERLAEEENKAKAEASSGDHPTDTEMKEEQKSNTAGSQSQVETEA
notes: FKBP52 (gene FKBP4), human; The His6 tag is cleavable; source: bacterial expression plasmid pET151, purified
B2: human GR DBD-LBD (residues 418-777, F602S) (domain or fragment, UniProt P04150 418-777, looked up)
chain: PKLCLVCSDEASGCHYGVLTCGSCKVFFKRAVEGQHNYLCAGRNDCIIDKIRRKNCPACRYRKCLQAGMNLEARKTKKKIKGIQQATTGVSQETSENPGNKTIVPATLPQLTPTLVSLLEVIEPEVLYAGYDSSVPDSTWRIMTTLNMLGGRQVIAAVKWAKAIPGFRNLHLDDQMTLLQYSWMSLMAFALGWRSYRQSSANLLCFAPDLIINEQRMTLPCMYDQCKHMLYVSSELHRLQVSYEEYLCMKTLLLLSSVPKDGLKSQELFDEIRMTYIKELGKAIVKREGNSSQNWQRFYQLTKLLDSMHEVVENLLNYCFQTFLDKTMSIEFPEMLAEIITNQIPKYSNGNIKKLLFHQK
notes: glucocorticoid receptor, human; codon optimized; The His6-MBP tag is cleavable; the complex was pulled down on MBP-GR DBD-LBD; Only the LBD was visible in the maps; also called glucocorticoid receptor; MBP-GR DBD-LBD; source: E. coli BL21 star (DE3), purified (Ni-NTA, size exclusion); not shown: MBP, N-terminal, kept

What all share (conditions): both partners purified
Assay [1] addresses T1, human Hsp90α (human, UniProt P07900 1-732).
T1 construct: Hsp90α, human; also called Hsp90A; Hsp90B (the two protomers of the dimer)
The assay is described as follows: cryo-EM structure; GR chaperone cycle reconstituted in vitro from purified components (GR DBD-LBD, Hsp70, Hsp40, Hop, Hsp90, p23, Bag-1) with FKBP52; 20 mM sodium molybdate; pulldown on MBP-GR DBD-LBD, size exclusion, 0.02% glutaraldehyde crosslinking; datasets I and II.

The target in assay [2] is B1. The assay is described as above.
Assay [3] addresses T2, human FKBP51 (human, UniProt Q13451 1-457).
T2 construct: FKBP51, human; The His6 tag is cleavable; source: bacterial expression plasmid pET151, purified
T2 sequence: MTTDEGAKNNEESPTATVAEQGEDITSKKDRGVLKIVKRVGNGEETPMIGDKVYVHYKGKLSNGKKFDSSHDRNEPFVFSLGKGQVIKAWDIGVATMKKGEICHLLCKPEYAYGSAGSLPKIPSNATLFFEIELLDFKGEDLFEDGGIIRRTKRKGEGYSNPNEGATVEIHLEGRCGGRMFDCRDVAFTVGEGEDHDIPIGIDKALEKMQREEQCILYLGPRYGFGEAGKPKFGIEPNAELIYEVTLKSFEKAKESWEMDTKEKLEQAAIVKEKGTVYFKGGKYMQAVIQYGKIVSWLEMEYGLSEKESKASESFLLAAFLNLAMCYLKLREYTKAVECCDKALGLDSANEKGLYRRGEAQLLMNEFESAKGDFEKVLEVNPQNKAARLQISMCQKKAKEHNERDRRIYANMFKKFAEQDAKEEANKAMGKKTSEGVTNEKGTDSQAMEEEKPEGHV
The assay is described as follows: cryo-EM structure; GR chaperone cycle reconstituted in vitro from purified components (GR DBD-LBD, Hsp70, Hsp40, Hop, Hsp90, p23, Bag-1) with FKBP51; 20 mM sodium molybdate; pulldown on MBP-GR DBD-LBD, size exclusion, 0.02% glutaraldehyde crosslinking; datasets III and IV. In general terms: In gel filtration, larger molecules generally elute earlier.

As to B1, the binding result in assay [1] was “binds”.
As for B2, the binding result in assay [1], in assay [2] and in assay [3] was “binds” throughout.

The record behind these values is article PMC10716051, “Cryo-EM reveals how Hsp90 and FKBP immunophilins co-regulate the glucocorticoid receptor” (Nature Structural & Molecular Biology, 2023).
